Source: publication PMC2613632 (The Journal of Biological Chemistry, 2009)

Biological target: the molecule itself
Test: native MS

B1: MacB, His-tagged, purified (natural protein, E. coli, UniProt P75831 1-648, looked up)
chain: MTPLLELKDIRRSYPAGDEQVEVLKGISLDIYAGEMVAIVGASGSGKSTLMNILGCLDKATSGTYRVAGQDVATLDADALAQLRREHFGFIFQRYHLLSHLTAEQNVEVPAVYAGLERKQRLLRAQELLQRLGLEDRTEYYPAQLSGGQQQRVSIARALMNGGQVILADEPTGALDSHSGEEVMAILHQLRDRGHTVIIVTHDPQVAAQAERVIEIRDGEIVRNPPAIEKVNVTGGTEPVVNTVSGWRQFVSGFNEALTMAWRALAANKMRTLLTMLGIIIGIASVVSIVVVGDAAKQMVLADIRSIGTNTIDVYPGKDFGDDDPQYQQALKYDDLIAIQKQPWVASATPAVSQNLRLRYNNVDVAASANGVSGDYFNVYGMTFSEGNTFNQEQLNGRAQVVVLDSNTRRQLFPHKADVVGEVILVGNMPARVIGVAEEKQSMFGSSKVLRVWLPYSTMSGRVMGQSWLNSITVRVKEGFDSAEAEQQLTRLLSLRHGKKDFFTWNMDGVLKTVEKTTRTLQLFLTLVAVISLVVGGIGVMNIMLVSVTERTREIGIRMAVGARASDVLQQFLIEAVLVCLVGGALGITLSLLIAFTLQLFLPGWEIGFSPLALLLAFLCSTVTGILFGWLPARNAARLDPVDALARE
stoichiometry N: 2
